Source: paper PMC10760138 (bioRxiv, 2024)

Target: full-length, membrane-anchored A/Aichi/02/1968(H3N2)(X-31) HA (Influenza A virus …, UniProt P03437)
Assay: flow cytometry on cells

Binder | binding result
HC19 recombinant IgG (antibody, V domains shown) VH: QVQLKESGPGLVAPSQSLSITCTVSGFLLISNGVHWVRQPPGKGLEWLGVIWAGGNTNYNSALMSRVSISKDNSKSQVFLKMKSLQTDDTAMYYCARDFYDYDVFYYAMDYWGQGTSVTVSS VL: QAVVTQESALTTSPGETVTLTCRSSTGAVTTSNYANWVQEKPDHLFTGLIGGTNNRAPGVPARFSGSLIGDKAALTITGAQTEDEAIYFCALWYSNHWVFGGGTKLTVL | binds
S5V2–29 recombinant IgG (antibody, V domains shown) VH: QVQLQESGPGLVKPSETLSLTCTVSGGSVSSNIYYWSWIRQTPGKGLEWLGYFYHSGSSNYNPSLKSRVTISGDMSKNQFSLKLKSVTAADTAIYYCARGGVENLMLVAVIQEMWYFDLWGRGTLVTVSG VL: DIQMTQTPSSLSASVGDRVTITCRASQSIGASLNWYQQKPGEAPKFLIYAASNLQSGVPSRFSGSGSGTDFTLTISSLQPEDFATYYCQQQGTFGQGTKLEIK | binds
S8V1–157 recombinant human IgG1 (antibody, V domains shown) VH: EVQLVQSGAEVKKPGASVKVSCKVSGYRLTALSMHWVRQAPGKGLEWMGGFDPEEDETIYAQNFQGRVTLTEDTSTDTVYMELSSLRSEDTGVYYCATLMGANPFDYWGQGTLIIVSG VL: not shown | binds
